Assay results as given in article PMC7341526.

Molecular target: vitreous collagen fibrils (rabbit), in the collagen-containing pellet (rabbit (endogenous in rabbit vitreous))
Assay: co-sedimentation; vitreous of uninjected rabbit eyes digested with hyaluronan lyase (24 h, 37 °C), centrifuged 13 000g 30 min; opticin in supernatant and collagen-containing pellet quantified by SRM-MS

- percent of opticin in the collagen-containing pellet: 6%
Substance: endogenous rabbit opticin (natural protein)
